Measured values reported in patent publication US20080104734A1.

Biological target: SSPG1d peptide (…) (Sclerotinia sclerotiorum)
Assay: phage ELISA during panning of the phage display scFv library

B1: scFv-SSPG1d-peptide (scFv)
scFv: MDIVLTQSPAIMSASPGEKVTMTCSASSSVSYMHWYQQKSSTSPKLWIYDTSKLASGVPGRFSGSGSGNSYSLTISSMEAEDVATYYCFQGSGYPLTFGAGTKLEIKRGAGGSGGGGSGGGGSGGGGSQVQLQQSGAELVRPGSSVKISCKASGYAFSNYWMNWVKQRPGQGLEWIGQIYPGYGDAKYNGKFKGKATLTADISSSTAYMQLSSLTSEDSAVYFCARSSYEANWGQGTLVTVSA
  absorbance at 450 nm above background (absorbance (450 nm)): 0.871
